Substrate in data set [1]: N[C@@H](CC1(C(=O)O)C=CC(O)C=C1)C(=O)O
Briefly: ADH and PDH assay: steady-state kinetics and Tyr inhibition, GmncADH wild type. The settings on record: other: 0.5 mM NADP^+, pH 7.6, 37° C. It counts as biochemical, Glycine max (soybean). As to the method: (§1) Kinetic parameters of purified recombinant proteins were determined from assays conducted at varying arogenate (19.5 μM-5 mM) and prephenate concentration (23.4 μM-6 mM). Standard assay conditions were 25 mM HEPES pH 7.6, 50 mM KCl and 10% (v/v) ethylene glycol, and 0.5 mM NADP^+ with varied substrate, concentrations. Reactions were initiated by addition of enzyme and incubated at 37° C. monitored every 10-15 seconds at […] using a microplate reader (Tecan Genios). Kinetic parameters were determined by fitting initial velocity data to the Michaelis-Menten equation using the Origin software (OriginLab).
(§2) Arogenate was prepared by enzymatic conversion of prephenate (Sigma-Aldrich) as previously reported^56. For Tyr inhibition assays, Tyr was dissolved in a slightly basic solution (0.025 N NaOH) due to solubility issues, thus the concentration of lysis buffer was increased to 500 mM HEPES final concentration to buffer against the changes by addition of Tyr in the reaction. Reactions containing varying amounts of Tyr (10 μM-8 mM) with 0.5 mM NADP^+ and either 1 mM arogenate or 0.8 mM prephenate were monitored as above.

Substrate in data set [2]: N[C@@H](CC1(C(=O)O)C=CC(O)C=C1)C(=O)O
Briefly: ADH and PDH assay: steady-state kinetics and Tyr inhibition, SolyncADH wild type. It counts as biochemical, Solanum lycopersicum (tomato). The settings on record: other: 0.5 mM NADP^+, pH 7.6, 37° C. As to the method: as §1, §2

Data set [3] can be described thus: PDH assay: steady-state kinetics of purified recombinant plant enzymes with prephenate. It is filed as biochemical. To be noted: prephenate versus arogenate, NADP+ cofactor.
Source text: As used herein, a polypeptide may “have greater arogenate dehydrogenase activity than prephenate dehydrogenase activity” or “have greater prephenate dehydrogenase activity than arogenate dehydrogenase activity” when the steady-state kinetic parameters (kcat/Km (mM^−1s^−1)) for arogenate dehydrogenase activity are greater than the steady-state parameters (kcat/Km (mM^−1s^−1)) for prephenate dehydrogenase activity or when the steady-state kinetic parameters (kcat/Km (mM^−1s^−1)) for prephenate dehydrogenase activity are greater than the steady-state parameters (kcat/Km (mM^−1s^−1)) for arogenate dehydrogenase activity. Steady-state kinetic parameters may be measured using techniques similar to those described by the inventors in the Examples. Briefly, kinetic parameters of purified polypeptides can be determined from assays conducted at varying arogenate and prephenate concentrations. Standard assay conditions include 25 mM HEPES pH 7.6, 50 mM KCl and 10% (v/v) ethylene glycol, and 0.5 mM NADP^+ with varied substrate, concentrations. Reactions can be initiated by the addition of the polypeptide and incubated at 37° C. monitored every 10-15 seconds at A340nm using a microplate reader. Kinetic parameters may be determined by fitting initial velocity data to the Michaelis-Menten equation using the Origin software.
as §1

Substrate in data set [4]: N[C@@H](CC1(C(=O)O)C=CC(O)C=C1)C(=O)O
Briefly: ADH and PDH assay: steady-state kinetics and Tyr inhibition, GmPDH1 wild type. To be noted: other: 0.5 mM NADP^+, pH 7.6, 37° C. It counts as biochemical, Glycine max (soybean). As to the method:
as §1
(§3) Arogenate was prepared by enzymatic conversion of prephenate (Sigma-Aldrich) as previously reported^56. For Tyr inhibition assays, Tyr was dissolved in a slightly basic solution (0.025 N NaOH) due to solubility issues, thus the concentration of lysis buffer was increased to 500 mM HEPES final concentration to buffer against the changes by addition of Tyr in the reaction. […]

Substrate in data set [5]: O=C(O)C(=O)CC1(C(=O)O)C=CC(O)C=C1
The data set is described as above. It is filed as biochemical, Glycine max (soybean). The settings on record: other: 0.5 mM NADP^+, pH 7.6, 37° C. As to the method: as §1, §3

Data set [6] in a line: PDH assay of microbial TyrA enzymes (Example 2). It counts as biochemical. As to the method:
ADH and PDH assays were performed using purified recombinant enzymes for SsTyrA and MhTyrA Wt and Q227E mutant, while the E. coli cell lysate was used for OiTyrA as expression and purification of this enzyme was unsuccessful. Reactions contained 0.8 mM substrate (arogenate or prephenate) and 0.8 mM cofactor (NADP+ or NAD+) together with reaction buffer (25 mM HEPES pH 7.6, 50 mM KCl, 10% (v/v) ethylene glycol). For OiTyrA assays containing cell lysates, reactions were incubated for 45 minutes and analyzed using HPLC as previously reported (Schenck et al., 2015). For pure enzymes, reactions were monitored every 10-15 seconds for reduced cofactor at A340 nm using a microplate reader (Tecan Genios). Kinetic parameters of purified recombinant enzymes were determined from assays containing varying concentrations of arogenate (39.1 μM-5 mM) or prephenate (39.1 μM-5 mM) substrate and monitored 10-15 seconds for reduced cofactor at A340 nm using a microplate reader (Tecan Genios). Kinetic parameters were determined by fitting initial velocity data to the Michaelis-Menten equation using Origin software (OriginLab) from technical replicate assays (n=3). Arogenate substrate was prepared by enzymatic conversion of prephenate (Sigma-Aldrich). All enzyme assays were conducted at a reaction time and protein concentration that were in the linear range and proportional to reaction velocity.

Substrate in data set [7]: N[C@@H](CC1(C(=O)O)C=CC(O)C=C1)C(=O)O
Briefly: ADH and PDH assay: steady-state kinetics and Tyr inhibition, MtncADH wild type. It counts as biochemical, Medicago truncatula. The settings on record: other: 0.5 mM NADP^+, pH 7.6, 37° C. As to the method:
as §1, §2

Substrate in data set [8]: O=C(O)C(=O)CC1(C(=O)O)C=CC(O)C=C1
The description is as above. To be noted: other: 0.5 mM NADP^+, pH 7.6, 37° C. It counts as biochemical, Medicago truncatula. As to the method: as §1, §2

What is called Km is the substrate concentration at which the rate is half of its maximum. As usually defined, the kcat is the maximal rate divided by the concentration of active sites. The term kcat/Km denotes the second-order rate constant that governs catalysis at low substrate concentration.

B1: GmncADH (Gm14g05990), soybean (Glycine max) noncanonical arogenate dehydrogenase, wild type (Glycine max) (protein)
chain: MSTWSLKIGVVGFGSFGQFLAKTMIKQGHTLRATSRTDYSLLCLPMGIQFFRDVAAFLEADNDVILVCTSILSLSEVLSSMPLTCLKRSTLFVDVLSVKEHPRNLLIKVLPEESDILCTHPMFGPDSGKDGWQDLTFVYDKVRIRDEAICSSFLHIFASEGCRMLQMSCEEHDKIAAKSQFITHTIGRTLAEMDIKSTPIDTKGFHSLVQLKDTTIRDSFDLYSGLFLHNRFAVQELENLEHALHKVKEMLVQRKSEELGLEKTEC
notes: wild type
B1: in data set [1], the Michaelis constant (Km) stood at 410 ± 30 µM, the kcat is 27.7 ± 1.1 s⁻¹ and the kcat/Km amounted to 67600 M⁻¹ s⁻¹.

B2: SolyncADH (Slycopersicum06g050630), tomato noncanonical arogenate dehydrogenase, wild type (Solanum lycopersicum) (protein)
chain: MSSSSSCQPKTLRIGIIGFGPFAQFLAKTMMKQGHCIHVTSRSDYSELCTDLGILFFRDMGAFLESDNEVIMISTSILSLSQVVESIPFNCLKRPTLFVDVLSVKEHPKDVLLRMMPRECDLLCTHPMFGPESGKDGWEDLTFMYDMVRIRDQPLCSSFLHIFSSEGCKMLEMTCEKHDRLAAQSQFLTHTIGRILSEMEVEPTPIDTKGFQKLVQVKESSVKDSFDLFSGLFIHNRFARQQMKNLEVALEKTKEKLQERSKELQDPIISKF
notes: wild type
Consider B2, for which, in data set [2], the Km came out at 450 ± 50 µM, the kcat was determined as 15.9 ± 2.1 s⁻¹ and the kcat/Km is 35300 M⁻¹ s⁻¹.

B3: SolyncADH: noncanonical arogenate dehydrogenase from tomato, wild-type (protein, listed as Solanum lycopersicum)
chain: MSSSSSCQPKTLRIGIIGFGPFAQFLAKTMMKQGHCIHVTSRSDYSELCTDLGILFFRDMGAFLESDNEVIMISTSILSLSQVVESIPFNCLKRPTLFVDVLSVKEHPKDVLLRMMPRECDLLCTHPMFGPESGKDGWEDLTFMYDMVRIRDQPLCSSFLHIFSSEGCKMLEMTCEKHDRLAAQSQFLTHTIGRILSEMEVEPTPIDTKGFQKLVQVKESSVKDSFDLFSGLFIHNRFARQQMKNLEVALEKTKEKLQERSKELQDPIISKF
modifications: misc_feature (1)..(272): SolyncADH WT
notes: noncanonical arogenate dehydrogenase from tomato, wild-type
As to B3, the “substrate specificity: PDH versus ADH activity (in words)” value in data set [3] is “exhibited ADH but not PDH activity”.

B4: GmPDH1 (Gm18g02650), soybean (Glycine max) prephenate dehydrogenase, wild type (Glycine max) (protein)
chain: MSTSSSSQSLKIGIVGFGNFGQFLAKTMIKQGHTLTATSRSDYSELCLQMGIHFFRDVSAFLTADIDVIVLCTSILSLSEVVGSMPLTSLKRPTLFVDVLSVKEHPRELLLRELPEDSDILCTHPMFGPQTAKNGWTDHTFMYDKVRIRDEVICSNFIQIFATEGCKMVQMSCEEHDRAAAKSQFITHTIGRTLGEMDIQSTPIDTKGFETLVKLKETMMRNSFDLYSGLFVYNRFARQELENLEHALHKVKETLMIQRTNGEQGHKRTES
notes: homodimer
For B4, in data set [4], the Km turned out to be 2590 ± 90 µM, the kcat came to 6.3 ± 0.7 s⁻¹ and the kcat/Km turned out to be 2430 M⁻¹ s⁻¹. In addition, in data set [5], the Km is 90 ± 10 µM, the kcat turned out to be 30.4 ± 0.7 s⁻¹ and the kcat/Km is 338000 M⁻¹ s⁻¹.

B5: GmPDH1 N222D: site-directed mutant of soybean PDH, Asn222 to Asp (protein)
chain: MSTSSSSQSLKIGIVGFGNFGQFLAKTMIKQGHTLTATSRSDYSELCLQMGIHFFRDVSAFLTADIDVIVLCTSILSLSEVVGSMPLTSLKRPTLFVDVLSVKEHPRELLLRELPEDSDILCTHPMFGPQTAKNGWTDHTFMYDKVRIRDEVICSNFIQIFATEGCKMVQMSCEEHDRAAAKSQFITHTIGRTLGEMDIQSTPIDTKGFETLVKLKETMMRDSFDLYSGLFVYNRFARQELENLEHALHKVKETLMIQRTNGEQGHKRTES
modifications: Synthetic: GmPDH1 N222D
notes: site-directed mutant of soybean PDH, Asn222 to Asp
Turning to B5, the “substrate specificity: PDH versus ADH activity (in words)” value in data set [3] is reported as “gained ADH activity”.

B6: MtPDH C220D: site-directed mutant of M. truncatula PDH, Cys220 to Asp (protein)
chain: MSSSSKSLKIGIVGFGTFGQFLANTMIKQGHTLTATSRTDYSQLCDQMGIHFFRDITAFLDADMDVILLCTSISSLSEVVGSMPLACLKRPTLFVDVLSVKEHPKNLLLKVLPEESDILCTHPMFGPVSGKNGWQNLTFMFDKVRIKDEVTCSKFLQIFASEGCKMVEMSCEEHDKAAAKSQFITHTIGRTLAEMDIKSTPIDTKGFQTLVELKKPVMGDSFDLYSGLFVYNRFARQELENLEHALHKVKEMLVQRIDEGQNPERTES
modifications: Synthetic: MtPDH C220D
notes: site-directed mutant of M. truncatula PDH, Cys220 to Asp
Regarding B6, in data set [3], the “substrate specificity: PDH versus ADH activity (in words)” value is “reduced PDH activity and enhanced ADH activity”.

B7: Wild-type: wild-type archaeon TyrA from Methanosaeta harundinacea, recombinant (protein)
chain: MTTMANSGTKNRMLIVGGTGGTGSWFAKYFKEHGFLVSIWGPSGKVEVAERLGVKFARDLMAEVAKSDVVLLSVPIKETAKVVEEVAPRMRPGSLLMDVTSLKAEPMKAMLRWAPDGVEVLGTHPMFGPTIPTIRGQTVILVPAAGRCDEWLLPMEEIFQEDGARVEVLGAEEHDRIMAVVQALTHFAYISIGSTLRSLDFDIAHSRRLMSPVYEIMIDFVGRILAQSPELYSSIQENPEAKRVREAYIEECQRLSKLADTGNSEGFMEAMRSAADHFDEREVALARSDRLISLWIDHREGKRRGLEPRW
modifications: M. harundinacea; misc_feature (1)..(310): M. harundinacea TyrA MhTyrA
notes: wild-type archaeon TyrA from Methanosaeta harundinacea, recombinant
With B7, the “ADH and PDH activity (in words)” value in data set [6] (0.8 mM arogenate or prephenate, 0.8 mM cofactor) was “strong PDH and very weak ADH activity”. In addition, the “cofactor preference (in words)” value in data set [6] (PDH activity, NADP+ versus NAD+, 0.8 mM) is “strongly preferred NADP+ over NAD+ cofactor”.

B8: MtncADH (Mt5g083530), Medicago truncatula noncanonical arogenate dehydrogenase, wild type (Medicago truncatula) (protein)
chain: MSNSPSLKIGIVGFGSFGQFLAKTMIKQGHTLTATSRTDYSHTCLQLGIQFFRDVGTFIEANNDVILICTSIMSFTKVLSSMPLACLKKPTTLFVDVLSVKEHPREVLLRVLPEESDILCTHPMFGPESGKNGWKDLNFMYDKVRIHDEATCSNFLHIFASEGCKMLQMSCEEHDKIAAKSQFITHTIGRTLAEMDIESTPIDTKGFQTLTQLKNTTMRDSFDLYSGLFVHNRFAKQELENLQRALDRVKEMLVQRMREELGPEKD
notes: wild type
Consider B8, for which, in data set [7], the Km was 140 ± 20 µM, the kcat stood at 39 ± 7.6 s⁻¹ and the kcat/Km worked out at 279000 M⁻¹ s⁻¹. In data set [8], the Km was found to be 6690 ± 270 µM, the kcat came out at 0.3 ± 0.1 s⁻¹ and the kcat/Km amounted to 45 M⁻¹ s⁻¹.

The values are drawn from patent publication US12134788B2, “Engineered prephenate dehydrogenases and arogenate dehydrogenases and methods of using the same” (Wisconsin Alumni Research Foundation, priority 2017, dated 2024).
